The term Kd denotes the concentration at which binding is half-saturated. The low end stands for a tighter complex, the high end for a looser complex.

For two molecules, Kd results are on record in patent publication US20210395372A1 (published 2021).

The test concerns the target T1, human Met-Fc chimera (human, UniProt P08581 25-932).
T1 chain: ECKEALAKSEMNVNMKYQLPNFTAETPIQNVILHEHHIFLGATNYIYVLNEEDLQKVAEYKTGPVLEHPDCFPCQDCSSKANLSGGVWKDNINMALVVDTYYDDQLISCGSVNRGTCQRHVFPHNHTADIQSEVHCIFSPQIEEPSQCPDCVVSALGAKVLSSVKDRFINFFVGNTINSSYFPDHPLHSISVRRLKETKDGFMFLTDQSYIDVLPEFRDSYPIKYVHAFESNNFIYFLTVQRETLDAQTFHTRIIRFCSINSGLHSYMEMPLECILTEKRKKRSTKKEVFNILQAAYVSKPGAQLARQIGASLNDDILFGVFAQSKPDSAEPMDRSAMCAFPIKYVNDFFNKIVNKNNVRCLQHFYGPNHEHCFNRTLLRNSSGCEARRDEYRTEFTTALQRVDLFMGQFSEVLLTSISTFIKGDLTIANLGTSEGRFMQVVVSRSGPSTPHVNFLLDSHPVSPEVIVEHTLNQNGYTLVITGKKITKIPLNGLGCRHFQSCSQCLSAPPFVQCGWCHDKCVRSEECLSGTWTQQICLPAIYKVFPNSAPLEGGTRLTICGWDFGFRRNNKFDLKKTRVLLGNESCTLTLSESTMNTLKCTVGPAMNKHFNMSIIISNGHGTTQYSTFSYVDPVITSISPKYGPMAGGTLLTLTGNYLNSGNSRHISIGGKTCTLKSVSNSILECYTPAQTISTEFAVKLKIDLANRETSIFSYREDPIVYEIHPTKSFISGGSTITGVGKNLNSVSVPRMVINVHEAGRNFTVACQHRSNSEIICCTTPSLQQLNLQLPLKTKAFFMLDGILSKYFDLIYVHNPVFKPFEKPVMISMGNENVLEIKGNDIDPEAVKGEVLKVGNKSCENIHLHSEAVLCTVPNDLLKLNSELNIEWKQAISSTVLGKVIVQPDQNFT
Nature of the test: ELISA. For orientation: ELISA stands for enzyme-linked immunosorbent assay.

B1: hOA-DN30-cl04H08 (antibody)
light: DIVLTQSPASLAVSLGERATINCKASQSVDYDGGSYMSWYQQRPGQPPKLLIYAASNLESGVPDRFSGSGSGTDFTLTIHSLQAEDVATYYCQQSYEDPLTFGGGTKVEIKRTVAAPSVFIFPPSDEQLKSGTASVVCLLNNFYPREAKVQWKVDNALQSGNSQESVTEQDSKDSTYSLSSTLTLSKADYEKHKVYACEVTHQGLSSPVTKSFNRGEC
heavy: not shown
chain: not shown
Take B1: binding was characterised by a dissociation constant (Kd) of 0.686 nM.

B2: MvDN30 (Fab, V domains shown)
VH: QVQLQQPGTELVKPGASVKLSCKASGYTFTSYWIHWVKQRPGQGLEWIGEINPSSGRTNYNEKFKNKVTVTVDKSSTTAYMQLSNLTSEDSAVYYCASRGYWGQGTTLTVSS
VL: DIVLTQSPASLAVSLGQRATISCKASQSVDYDGGSYMSWFQQRPGQPPKLLISAASNLESGIPARFSGSGSGTDFTLNIHPVEEEDVATYYCQQSYEDPLTFGAGTKVEIK
In the case of B2, the Kd came to 0.21 nM.
